Residue numbers refer to the chain shown, from its start. Names may count otherwise.
T1: recombinant canine Nerve Growth Factor (Canis lupus familiaris NGF) (canine (Canis lupus familiaris), UniProt Q29074 110-229 (pig entry), limits assumed)
T1 construct: also called canine NGF; Dog NGF
T1 chain: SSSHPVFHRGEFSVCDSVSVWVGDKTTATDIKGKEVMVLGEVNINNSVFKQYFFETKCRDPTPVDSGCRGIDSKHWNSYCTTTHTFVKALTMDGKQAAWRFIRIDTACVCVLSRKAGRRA

B1: SSM-8 (LC E3M, HC SSMwtHCD54T, L63I) (antibody, V domains shown)
VH: EVQLVESGGDLARPGGSLKLSCVVSGFSLIGYDINWVRQAPGKGLQWVTMIWGTGTTDYNSAIKSRFTVSRDNAMNTVYLQMNSLRVEDTAVYYCARGGYYYGTSYYFDYWGQGTLVTVSS
VL: DIVMTQTPLSLSVSPGETASISCRASQDISNHLNWFRQKPGQSPQRLIYYISRFHSGVPDRFSGSGSGTDFTLRISRVEADDTGVYYCQQSKTLPYTFGAGTKLEIK
B2: LTM construct 32 (HC Y100W, LC D28S) (antibody, V domains shown)
VH: B1 VH with T54D, I63L, Y100W
VL: B1 VL with D28S
notes: Point mutant of canE3M65, converted into full IgG and expressed in HEK293; The canine constant regions are not restated
B3: SSM-19 (LC SSMwtLCR53S, HC SSMwtHCD54T, L63I) (antibody, V domains shown)
VH: B1 VH
VL: B1 VL with R53S
B4: LTM construct 111 (HC Y101W, G103A; LC *D28S, NH31HN, S91Y) (antibody, V domains shown)
VH: B1 VH with T54D, I63L, Y101W, G103A
VL: B1 VL with D28S, N31H, H32N, S91Y
notes: The '*' is not explained
B5: SSM-14 (LC SSMwtLCR53S, HC SSMwtHCG31E) (antibody, V domains shown)
VH: B1 VH with G31E, T54D, I63L
VL: B1 VL with R53S
B6: LTM construct 39 (HC Y100W, LC D28S, S91Y) (antibody, V domains shown)
VH: B1 VH with T54D, I63L, Y100W
VL: B1 VL with D28S, S91Y
notes: Point mutant of canE3M65 as full IgG; Constant regions are not restated
B7: SSM-17 (LC SSMwtLCR53S, HC SSMwtHCD54T) (antibody, V domains shown)
VH: B1 VH with I63L
VL: B1 VL with R53S
B8: LTM construct 38 (HC Y100W, LC D28S, NH31HN, K92D) (antibody, V domains shown)
VH: B1 VH with T54D, I63L, Y100W
VL: B1 VL with D28S, N31H, H32N, K92D
notes: as for B6
B9: SSM-22 (LC SSMwtLCR53S, HC SSMwtHCD54T, G31E) (antibody, V domains shown)
VH: B1 VH with G31E, I63L
VL: B1 VL with R53S
B10: LTM construct 133 (HC G103A, LC K92H) (antibody, V domains shown)
VH: B1 VH with T54D, I63L, G103A
VL: B1 VL with K92H
notes: Point mutant of canE3M65 as full IgG
B11: SSM-36 (LC SSM135LCR53S, HC SSM135HCG31E) (antibody, V domains shown)
VH: B1 VH with G31E, T54D, I63L, G103A
VL: B1 VL with H32N, R53S
notes: Both chains are built on the LTM135 template (HC G103A, LC H32N)
B12: LTM construct 44 (HC Y100W, LC S91E) (antibody, V domains shown)
VH: B1 VH with T54D, I63L, Y100W
VL: B1 VL with S91E
notes: as for B6
B13: LTM construct 43 (HC Y100W, LC K92H) (antibody, V domains shown)
VH: B1 VH with T54D, I63L, Y100W
VL: B1 VL with K92H
notes: as for B6
B14: LTM construct 36 (HC Y100W, LC K92D) (antibody, V domains shown)
VH: B1 VH with T54D, I63L, Y100W
VL: B1 VL with K92D
notes: as for B6

Tests used:
[1] = molecular target: T1, recombinant canine Nerve Growth Factor …; assay: SPR, 1:1 binding fit, canine NGF
[2] = molecular target: T1, recombinant canine Nerve Growth Factor …; assay: SPR, Biacore T100, dog NGF; run 11/22
[3] = molecular target: T1, recombinant canine Nerve Growth Factor …; assay: SPR, Biacore T100, dog NGF; run 11/29; comment 'Agg?'
[4] = molecular target: T1, recombinant canine Nerve Growth Factor …; assay: SPR, Biacore T100, dog NGF; run 11/24; comment 'Agg?'
[5] = molecular target: T1, recombinant canine Nerve Growth Factor …; assay: SPR, Biacore T100, dog NGF; run 11/24

Binder | Kd [1] [nM] | koff [1] [s⁻¹] | kon [1] [M⁻¹ s⁻¹] | other results
B1 | 41.8 | 0.000173 | 4130 | 
B2 |  |  |  | Kd [2]: 2.25 nM
B3 | 37.4 | 0.00164 | 43800 | 
B4 |  |  |  | Kd [3]: 0.0288 nM; Kd [4]: 0.146 nM
B5 | 23.6 | 0.00812 | 344000 | 
B6 |  |  |  | binding result [2]: no binding
B7 | 69.1 | 0.0014 | 20300 | 
B8 |  |  |  | Kd [2]: 2.15 nM
B9 | 249 | 0.000296 | 1190 | 
B10 |  |  |  | Kd [3]: 0.011 nM; Kd [4]: 0.00133 nM
B11 | 40.2 | 0.00033 | 8200 | 
B12 |  |  |  | binding result [5]: no binding
B13 |  |  |  | Kd [5]: 5.67 nM
B14 |  |  |  | Kd [2]: 5.5 nM

Source: patent US20150147318A1 (ZOETIS SERVICES, published 2015)
